Results reported in publication doi:10.1101/2023.12.22.573140.

Key:
Experiment in all cases: ITC
[1] = biological target: TGF-β mimic 6 (TGM6), full-length (Heligmosomoides polygyrus)
[2] = biological target: TGM6 domain 3 (TGM6-D3) (Heligmosomoides polygyrus)
[3] = biological target: TGF-β type II receptor (TβRII) (UniProt P37173)

Substance	fold decrease in binding affinity against wild type [3]	further results
TGF-β type II receptor (TβRII) (from UniProt P37173 46-155)		Kd [1]: 220 nM; Kd [2]: 440 nM
TGM1-D3 S242R (domain or fragment)		fold gain of binding affinity against wild type [3]: 4 fold
TGM6-D3 I78A (domain or fragment)	15.4 fold	
TGM6-D3 R38A (domain or fragment)	22 fold	
TGM6-D3 R82A (domain or fragment)	11 to 12 fold	
TGM6-D3 R82S (domain or fragment)		fold loss of binding affinity against wild type [3]: 7.4 fold
TGM6-D3 R95A (domain or fragment)	11.6 fold	
TGM6-D3 Y80A (domain or fragment)	134 fold	
TGM6-D3 Y80F (domain or fragment)	3.5 fold	
TGM6-D3 Y93A (domain or fragment)	108 fold	
